Data: patent US20260258158A1 (Janssen / Centocor, published 2026)

Target: T1, Biotinylated Human CD3 epsilon&CD3 delta Heterodimer Protein, His, Avitag&Tag Free (AcroBiosystems) (human, UniProt P07766 23-126; P04234 22-105)
T1 construct: also called cluster of differentiation 3 (CD3); soluble CD3 antigen
Assay: BLI, biotinylated CD3 epsilon/delta on the tip, antibody as analyte (FIG. 24C)
Description: In the BLI assay for CD3, due to nonspecific binding from the soluble CD3 antigen (Biotinylated Human CD3 epsilon&CD3 delta Heterodimer Protein, His, Avitag™&Tag Free from AcroBiosystems), the assay was reversed, i.e., immobilizing the antigen to the tip and using the bispecific antibodies as the analyte.

T1 sequence (P07766 23-126, stated change not applied, chain 1 of 2): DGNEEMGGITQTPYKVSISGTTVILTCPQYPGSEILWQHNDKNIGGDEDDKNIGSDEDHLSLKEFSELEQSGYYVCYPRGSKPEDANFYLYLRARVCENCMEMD
T1 sequence (P04234 22-105, stated change not applied, chain 2 of 2): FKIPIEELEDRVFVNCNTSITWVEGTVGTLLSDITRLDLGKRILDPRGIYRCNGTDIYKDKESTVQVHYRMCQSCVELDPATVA

B1: HLPPB423 (bispecific antibody, human IgG1, kappa)
heavy 1: not shown
light 1: not shown
heavy 2: EVQLVESGGGLVQPGGSLRLSCAASGYSFTGYTMNWVRQAPGKGLEWVALINPYKGVSTYNQKFKDRFTISVDKSKNTAYLQMNSLRAEDTAVYYCARSGYYGDSDWYFDVWGQGTLVTVSSASTKGPSVFPLAPSSKSTSGGTAALGCLVKDYFPEPVTVSWNSGALTSGVHTFPAVLQSSGLYSLSSVVTVPSSSLGTQTYICNVNHKPSNTKVDKKVEPKSCDKTHTCPPCPAPELLGGPSVFLFPPKPKDTLMISRTPEVTCVVVDVSHEDPEVKFNWYVDGVEVHNAKTKPREEQYNSTYRVVSVLTVLHQDWLNGKEYKCKVSNKALPAPIEKTISKAKGQPREPQVYTLPPSREEMTKNQVSLSCAVKGFYPSDIAVEWESNGQPENNYKTTPPVLDSDGSFFLVSKLTVDKSRWQQGNVFSCSVMHEALHNRFTQKSLSLSPGK
light 2: not shown
Question: Does B1 bind?
Answer: Result: binds
